From US20180044434A1

Legend:
[1] = biological target: T1, Ala mutant of TA0096, SEQ ID NO: 32; test: ELISA, coated peptide
T1 sequence (peptide): EENMDAQWMQDEMEIGY

[2] = biological target: T2, Ala mutant having 3-amino acid substitution, SEQ ID NO: 46; test: ELISA, coated peptide
T2 sequence (peptide): EENMDDAAAQDEMEIGY

“anti-dinitrophenyl (DNP) antibody (negative control)” was tested, and the OD 490/630 nm [1] was 0.012 and the OD 490/630 nm [2] was 0.052.
